According to PMC4159076 (Cell reports, 2013):
Values belong to the molecule of their own block, whether it stands above or below them.

What was measured:
[1] = target: NPM (Flag-NPM / GST-NPM constructs) (UniProt P06748); assay: GST pull-down, anti-Flag western blot; details: reference: Flag-NPM wild type; sites S125
[2] = target: endogenous NPM (human cells) (human (endogenous in HEK293)) (UniProt P06748); assay: denaturing gel electrophoresis with western blot
[3] = target: the molecule itself; assay: denaturing gel electrophoresis with western blot

binding against the reference [1]: weaker
Molecule: NPM (Flag-NPM / GST-NPM constructs) (from UniProt P06748) Flag-NPM S125A

stoichiometry N [2]: 6
Molecule: endogenous NPM (human cells) (from UniProt P06748 1-294) (natural protein)

B1: nucleophosmin (NPM) (endogenous, mouse cells) (natural protein, UniProt Q61937 1-292, looked up)
chain: MEDSMDMDMSPLRPQNYLFGCELKADKDYHFKVDNDENEHQLSLRTVSLGAGAKDELHIVEAEAMNYEGSPIKVTLATLKMSVQPTVSLGGFEITPPVVLRLKCGSGPVHISGQHLVAVEEDAESEDEDEEDVKLLGMSGKRSAPGGGNKVPQKKVKLDEDDEDDDEDDEDDEDDDDDDFDEEETEEKVPVKKSVRDTPAKNAQKSNQNGKDLKPSTPRSKGQESFKKQEKTPKTPKGPSSVEDIKAKMQASIEKGGSLPKVEAKFINYVKNCFRMTDQEAIQDLWQWRKSL
stoichiometry N [3]: 6
